Measured values reported in PMC12658286.

Columns and labels:
[1] = Flag-PD-L1 IP with HA-Ub, Western blot; settings: glycan gained; control: control-transfected HepG2 (vector / siNC), MG132
Western blot of PD-L1 = settings: glycan lost; control: untreated HepG2 cells

PD-L1: GALNT16 overexpression
other: ubiquitination [1]: decreases

PD-L1: tunicamycin (2 µg/mL, 18 h)
expression_or_secretion (Western blot of PD-L1): decreases
